Assay results from a protein production outcome set (Wang et al. 2014).

Assay: label from the status in PepcDB records

Sequence | protein production
MEQTDITSLIPIAITLIISLTTRNVVVGLFAGVLSGVAMLNGLFTTLGPFETFGVMVKSYISPQLTDSYNAGVIVLLVFIGGFVALMEKSGGGLAFAEKVTLWVKSKFQAQTSAWLGGIIIFFSDLGTPLIVGPVFRPLFDKLKISRQKLAFIIDSTSSPVAILIPFIGWGVYIMGLIQKEFTALNVTDITDWDAFLGAIPYQFYAILAIAIVPLVALKKLDFGPMAKAEAIASKGELHASSDISKEIFTHKNAKASFVWAPLLVMGAVLVFMLAPLGFPFEKVSGSVFRSALSTAYFFAAFTLIILMAMNKVRSLSDGISVYMKGMGNMMQVAIILILAWTLSSVGKELGAAAYIAEQAQNGFPYWLVPAVSFLLAAIISFATGSSWGTFAIMMHLVIPTAITIDAPMFVCIGAVLSGGLFGDHCSPISETTILSSTGAGCDQFEHFKTQLPYALLNGGIALVSFLIAGIFDNPLIFILALIAQVTLVVTLAKLTPENMFNKSKLVAGNQLG | failed
MERHQHLLSEYQQILTLSEQMLVLATEGNWDALVDLEMTYLKAVESTANITISSCSSLMLQDLLREKLRAILDNEIEIKRLLQLRLDRLSDLVGQSTKQQAVNNTYGQFPDHALL | not failed
MERISLSFVGDVMLAGSATDTLQRYGYSYPFSATAAELRRSDLVVGNLEAPLTDGGREFRAKRFRFKASPVAAAALKRAGFSVMTLANNHMMDFGADGLSDTIHHLNRNGIAFAGAGPSIADARREASVTVRGQTVAFLAYSLTQPIEFFATEGRPGTAPGYAGHYLADIRRVRSSADHVVVSFHWGQERAALPSPYQIETAHRAIDAGADIVIGHHPHVLQGIEIYRGSPIFYSLGNFAFGSRSPSADRSIIARVTLGEGPPIVEVIPLNVLFREVRFQPAILTGRKAADVVDRLNRLSAPFSTVITSTAGSHLVAPAEANARLARRQLEHHHHHH | failed
MERKFMSLQPSISVSEMEPNGTFSNNNSRNCTIENFKREFFPIVYLIIFFWGVLGNGLSIYVFLQPYKKSTSVNVFMLNLAISDLLFISTLPFRADYYLRGSNWIFGDLACRIMSYSLYVNMYSSIYFLTVLSVVRFLAMVHPFRLLHVTSIRSAWILCGIIWILIMASSIMLLDSGSEQNGSVTSCLELNLYKIAKLQTMNYIALVVGCLLPFFTLSICYLLIIRVLLKVEVPESGLRVSHRKALTTIIITLIIFFLCFLPYHTLRTVHLTTWKVGLCKDRLHKALVITLALAAANACFNPLLYYFAGENFKDRLKSALRKGHPQKAKTKCVFPVSVWLRKETRV | failed
MERKGIFIKVFSYTIIVLLLLVGVTATLFAQQFVSYFRAMEAQQTVKSYQPLVELIQNSDRLDMQEVAGLFHYNNQSFEFYIEDKEGSVLYATPNADTSNSVRPDFLYVVHRDDNISIVAQSKAGVGLLYQGLTIRGIVMIAIMVVFSLLCAYIFARQMTTPIKALADSANKMANLKEVPPPLERKDELGALAHDMHSMYIRLKETIARLEDEIAREHELEETQRYFFAAASHELKTPIAAVSVLLEGMLENIGDYKDHSKYLRECIKMMDRQGKTISEILELVSLNDGRIVPIAEPLDIGRTVAELLPDFQTLAEANNQRFVTDIPAGQIVLSDPKLIQKALSNVILNAVQNTPQGGEVRIWSEPGAEKYRLSVLNMGVHIDDTALSKLFIPFYRIDQARSRKSGRSGLGLAIVQKTLDAMSLQYALENTSDGVLFWLDLPPTSTL | failed
MERKLSNGCVASKSEELAKQQLPPPPDQDQEQPALQPPKVNGLKENQAVKHNNNNNTNNNNNKNGLVNGNAKKDELKAAEDHDTQSKEDDDPKEKVVKPKLNGNLIKNPIDKTAETQDKIAQPAPEPPLPKRPKLETPTSNEVTKANGQLVQQQLESRESEEEPQHVDE | failed
MERLISHPPLMIVSDLDHTMVDHQDHENLSLLRFNSLWEYAYRRDSLLVFSTARSPVLYKELRKEKPLLTPDIIITSIGTEIAFGNSMVPDHAWVESLNSCKWNREIVLEETSKFPELTLQPKTEQRLHKVSFYIDEGKGEALTKELSQLLEKRGLDVKIIYSWGKNVDVIPRGAGKGEALEYLLKKLQAEGIFPVNTLACGDSEHDAELFSIPDVHGVMVSNSQEELLKWRSENALNNLKVIHSTERCADGIIQAIGHFNLGPDLSPRDVSEFLDRKMDNVNPGHEVVRFYLFYERLRRGEIKNYETYIASFKDSCAEKSLRDTIDELKKCYGDKRGKKFWVWVDQVLVTDTIPGKWIVKFDKWEQCEDESQCCKTTVEFTSKGGDLVWEKVKQIWSEESKVKDDNSSWIL | not failed
